Assay results published in patent publication US20250215091A1, “Anti-GAL3 Antibodies and Compositions” (Les Laboratoires Servier, priority 2022, published 2025).

Columns and labels:
plasma IL-5 = experiment: HOCI-induced murine fibrosis model: plasma IL-5 (MSD); type: in vivo, mice; details: first experiment, day 42; vs HOCI group; FIG. 9
Protocol: (§1) In a first experiment, control mice (n=12) received a daily intradermal injection of 300 μL of sterile phosphate buffer saline (PBS) for 5 consecutive days per week, for a duration of 42 days. HOCI alone and HOCI with antibody (HOCI-antibody) treated mice (n=12 per group) received a daily intradermal injection of 300 μL of HOCI for 5 consecutive days per week, for a duration of 42 days. Antibody-treated mice also received a subcutaneous injection of 20 mg/kg antibody, starting at day minus one and every 5 days between day 5 and day 40. Each antibody was solubilized in sterile, endotoxin-free PBS before injection. In a second experiment, the same protocol was applied, except that duration of the study was 63 days and antibodies were given every 7 days starting at day minus 1 until day 62.
(§2) Mice that received daily injection of HOCI were also treated by intratracheal instillation of 0.5 mg/kg of TD139 compound (HOCI-TD139), a small molecule Gal3 inhibitor. In a first experiment, the administrations started from day 21 and the compound was given every 3 days until day 39. In a second experiment, the administrations started from day 20 and the compound was given every 3 days until day 62. TD139 was initially dissolved in 100% DMSO then diluted 50-fold in endotoxin-free PBS before administration.
(§3) In the first experiment, a mixed effect model with repeated measurements was performed on Control group, HOCI treated group, HOCI-antibody- and HOCI-TD139-treated groups. The impact of HOCI administration on plasma IL-6 and IL-5 levels was evaluated compared to the control group. The impact of antibody and TD139 treatments was compared to the HOCI group (FIG. 9). IL-6 and IL-5 were quantified by using the MSD technology from Mesoscale.

[1] = test system: murine model of HOCI-induced fibrosis; experiment: HOCI-induced murine fibrosis model: skin thickness; type: in vivo, mice
rat model of ARDS [2] = experiment: Rat ARDS model (LPS challenge): total BALF protein (BCA assay); type: in vivo; details: antibodies 14 mg/kg x3 prior to LPS; dexamethasone 10 mg/kg oral; vs LPS group; FIG. 17
Method in brief: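 Rats dosed with antibody at 14 mg/kg (in sterile PBS) or PBS on days −11, −6 and −1, then LPS 0.25 mg/kg s.c. on day 1; dexamethasone 10 mg/kg oral 2 h before LPS as reference. Total protein in BALF quantified by BCA assay, compared with the LPS + PBS group.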

plasma IL-6 = experiment: HOCI-induced murine fibrosis model: plasma IL-6 (MSD); type: in vivo, mice; details: first experiment, day 42; vs HOCI group; FIG. 9
Protocol: as §1, §2, §3

rat model of ARDS [3] = experiment: Rat ARDS model (LPS challenge): neutrophils counts in BALF; type: in vivo; details: antibodies 14 mg/kg x3 prior to LPS; dexamethasone 10 mg/kg oral; vs LPS group; FIG. 16
Method in brief: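 Rats dosed with antibody 14 mg/kg or PBS on days −11, −6 and −1, then LPS 0.25 mg/kg subcutaneously on day 1; reference group got oral dexamethasone 10 mg/kg 2 h before LPS. Neutrophils counted in bronchoalveolar lavage fluid.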

plasma TNF alpha = experiment: Rat ARDS model (LPS challenge): plasma TNF alpha (MSD); type: in vivo; details: 4 h following LPS challenge; vs LPS group; FIG. 18
Method in brief: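 Rats given anti-Gal3 antibodies (14 mg/kg in PBS) or PBS on days −11, −6 and −1, then challenged with LPS 0.25 mg/kg s.c. on day 1; dexamethasone 10 mg/kg p.o. 2 h pre-LPS as reference. Plasma sampled 4 h post-LPS; TNF alpha quantified by MSD.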

plasma Gal3 = experiment: HOCI-induced murine fibrosis model: plasma Gal3 (ELISA); type: in vivo, mice; details: first experiment, day 42; FIG. 10
Protocol: as §1, §2
In the first experiment, the plasma levels of Gal3 were measured at day minus 1 (before antibody administration) and at termination day (day 42) using a mouse Galectin-3 DuoSet ELISA kit (R&D Systems, DY1197) according to the manufacturer's instructions. Plasma samples were diluted 1:200 in order to fit with the dynamic range of the assay.

[4] = test system: murine model of HOCI-induced fibrosis; experiment: HOCI-induced murine fibrosis model: skin and lung collagen (Picrosirius red); type: in vivo, mice; details: first experiment
Protocol: as §1, §2
At the day of study termination of the first experiment (day 42), skin and lung samples were taken, formalin-fixed and processed to individual paraffin wax blocks. Sections of skin and lung were cut from the blocks and, after rehydration, stained with Picrosirius Red coloration according to the manufacturer's protocol. Subsequently, each slide was examined and remotely analyzed employing the web-based Image J software

B1: E07: anti-Gal3 monoclonal antibody, IgG1 format; VH SEQ ID NO 42, VL SEQ ID NO 43 (antibody, V domains shown)
VH: EVQLVESGGSLVKPGGSLRLSCAASGFTFSNYNMNWVRQAPGKGLEWISNIYGSSRYIYYADFVKGRFTISRDNAKNSLYLQMNSLRAEDTAVYYCVRSYYGGMDVWGRGTLVTVSS
VL: QSVLTQPASVSGSPGQSITISCAGTSSDVGGYYSVSWYQQHPGKAPKLMIYYDSNRPSGVSNRFSGSKSGNTASLTISGLQAEDEADYYCSSYTGYSTRVFGGGTKLEIK
Plasma IL-5
  plasma IL-5 levels: decreased significantly
[1]; first experiment, 42 days, antibody 20 mg/kg s.c., TD139 0.5 mg/kg intratracheal, vs HOCI group, FIG. 7A
  HOCI-induced increase in skin thickness: significantly reduced
[1]; first experiment, sustained effect until day 42
  day from which reduction of skin thickness was significant: 21 days
[1]; second experiment, 63 days, antibody 20 mg/kg s.c. every 7 days, sustained effect until day 63, FIG. 7B
  HOCI-induced increase in skin thickness: significantly reduced
[1]; second experiment, sustained effect until day 63
  day from which reduction of skin thickness was significant: 7 days
Rat model of ARDS [2]
  total BALF protein: also decreased with a statistic significance
Plasma IL-6
  plasma IL-6 levels: significantly decreased the plasma IL-6 levels to values similar to those of control mice
Rat model of ARDS [3]
  neutrophils counts in BALF: also decreased
Plasma TNF alpha
  TNF alpha plasma levels: also decreased, displaying an intermediary profile
Plasma Gal3
  plasma Gal3 levels: restored the plasma Gal3 levels to values similar to those of the control group
[4]; day 42, FIG. 8A
  lung collagen levels: restored lung collagen levels to those of control mice, reaching statistical significance
[4]; day 42, vs HOCI group, FIG. 8B
  skin collagen levels: non significant downward trend
